Target: T1, HLA-E (HLA-E*01033-transfected K562) (Homo sapiens, UniProt P13747)
T1 construct: expressed in transfected cells; host or cells: K562 (K562/HLA-E, kept under G-418 selection)
Assay: Peptide-HLA molecule binding assay (HLA-E stabilization)
Settings: HLA-E Transfected K562 pulsed overnight at 26° C.
Experimental: Peptide binding was assessed by HLA-E stabilization assays using HLA-E*01033-transfected derivative of K562 (K562/HLA-E) cell lines. Briefly, cells were re-suspended in serum-free medium at 1×10^6 cells/ml. Where appropriate, a peptide (see Table 1) was added. After overnight incubation at 26° C., cells were washed with PBS to remove free peptides. Next, HLA surface expression was monitored after staining with anti-HLA-E mAb. Analysis was done on a FACScalibur cytometer (BD Biosciences). Results are presented as the MFI of cells stained with anti-HLA-E mAb.

Row | Sequence | MFI (HLA-E surface expression, anti-HLA-E mAb)
1 | TALSEGATP (MHCIb/E-binding antigen) | 8530
2 | RIRTWKSLV (HIV-1 Pol derived peptide; MHCIb/E-binding antigen) | 6580
3 | PEIVIYDYM (HIV-1 Pol derived peptide; MHCIb/E-binding antigen) | 7320
4 | RMYSPVSIL (MHCIb/E-binding antigen) | 8240
5 | VMATRRNVL (MBt derived peptide) [reference compound] | 7523

Reference: patent US11957748B2, “Vaccine to pathogenic immune activation cells during infections” (priority 2019, dated 2024)
